# Legend:
# [1] = system: MBP-C chemically tagged on its C-terminal cysteine with the maleimide Peptide-2 tag
# [2] = system: mNG-HTH (mNG with a helix-turn-helix blocking domain and ssrA tag)
# [3] = system: C-MBP dimer (MBP variant with a cysteine on the third residue, disulfide-linked N-terminus to N-terminus homodimer)
# [4] = system: mNG-beta_hairpin (mNG with a hairpin blocking domain and ssrA tag)
# [5] = system: {MBP}-{MBP-1}, genetic fusion protein of two MBP proteins (805 amino acids, 88 kDa)
# [6] = system: MBP-1 (His-tagged Maltose Binding Protein with C-terminal leader: polyglycine stall, polyarginine capture, ssrA recognition motif)
# [7] = system: mNG-alpha_helix (mNG with an alpha-helical blocking domain and ssrA tag)
substance,measurement,setting,value
"E. coli ClpX, N-terminal truncated variant (residues 61-423)",ClpX controlled translocation of tagged MBP (ionic current),[1],ClpX controlled MBP translocations (marked by arrows) are evident from the characteristic pattern of changing ionic current signals
same,fluorescence over time at 37° C. after adding ClpX and ATP,[2],no decrease in fluorescence
same,nanopore read of the disulfide-linked dimer with ClpX and ATP in cis,[3],"After reading the first monomer of C-MBP, the unfoldase was able to pass through the disulfide bond, after which it reads the second C-MBP monomer in the N- to C-terminus direction"
same,fluorescence over time at 37° C. after adding ClpX and ATP,[4],no decrease in fluorescence
same,full length single-molecule reads with ClpX and ATP in cis,[5],full length reads of the protein were reliably obtained
same,ClpX controlled translocation with 1M KGlu in cis and 1 M KCl in trans,[6],ClpX controlled MBP-1 translocations were obtained from CytK 4D2E nanopores systems with 1M KGlu in the cis and 1 M KCl in trans
same,ClpX-controlled translocation of MBP-1 through the nanopore (ionic current),[6],clear and consistent capture and subsequent ClpX-controlled translocation of MBP-1 was observed
same,rate of ClpX translocating along the polypeptide,[6],about 12-15 aa/second in these conditions
same,trans-to-cis ClpX controlled translocation (ionic current),[6],characteristic ClpX controlled MBP-1 translocation events occurred trans-to-cis
same,translocation with 2.5 mM Gamma-S-ATP in place of ATP,[6],long blockades that never progressed to the changing current levels phase associated with ClpX translocase controlled movement of polypeptide that was observed under regular ATP conditions
same,fluorescence over time at 37° C. after adding ClpX and ATP,[7],no decrease in fluorescence
